Changes are numbered by the printed parent chain. In names and notes the source's numbering stands. Several values for one entry are separate records, joined by “and”; a condition that tells them apart may be missing. Equal values may be shown once.
Columns and labels:
[1] = target: stab1 cystatin C (L47C/G69C), disulfide-stabilized monomer (human) (UniProt P01034); assay: MALDI-TOF MS; isolated oligomers 1 mg/ml in 150 mM ammonium bicarbonate pH 7.8 (nonreducing), matrix 2,6-dihydroxyacetophenone
[2] = target: Mammalian legumain (EC 3.4.22.34) (pig)
[3] = target: stab1 cystatin C (L47C/G69C), disulfide-stabilized monomer (human) (UniProt P01034); assay: native gel or EMSA; agarose gel electrophoresis under native conditions; stab1 cystatin C 0.2 mg/ml (15 uM) in PBS pH 7.4, 0.5 or 1.0 M GdnHCl, 1:1 molar equivalents of DTT, 24 h at 40 C
[4] = target: the molecule itself; assay: SEC; SEC at the end of the purification of refolded L68Q cystatin C
[5] = target: the molecule itself; assay: SDS-PAGE in 0.1% SDS of unboiled, nonreduced samples; 1 mg/ml in 50 mM sodium acetate pH 4.0, 100 mM NaCl, 48 C, 900 rpm, 4 h; gel run at 4 C, silver-stained

Molecule: stab1 cystatin C (L47C/G69C), disulfide-stabilized monomer (from UniProt P01034 27-146)
- stoichiometry N (monomeric subunits) [1]: 2

Molecule: stabilized cystatin C trimer (stab1, L47C/G69C) (from UniProt P01034 27-146) (complex)
- inhibitory capacity toward legumain (fluorogenic substrate Z-Ala-Ala-Asn-AMC), equal mass concentrations [2]: 99%

Molecule: stabilized cystatin C decamer (stab1, L47C/G69C) (from UniProt P01034 27-146) (complex)
- inhibitory capacity toward legumain (fluorogenic substrate Z-Ala-Ala-Asn-AMC), equal mass concentrations [2]: 93%

Molecule: stab1 cystatin C (L47C/G69C), disulfide-stabilized monomer (from UniProt P01034 27-146) (natural protein)
- stoichiometry N (monomeric subunits) [1]: 4 and 3
- stoichiometry N [3]: 2

Molecule: stabilized cystatin C dimer (stab1, L47C/G69C) (from UniProt P01034 27-146) (complex)
- inhibitory capacity toward legumain (fluorogenic substrate Z-Ala-Ala-Asn-AMC), equal mass concentrations [2]: 102%

B1: stabilized cystatin C high molecular weight oligomers (stab1, L47C/G69C) (complex)
chain: SSPGKPPRLVGGPMDASVEEEGVRRALDFAVGEYNKASNDMYHSRACQVVRARKQIVAGVNYFLDVELCRTTCTKTQPNLDNCPFHDQPHLKRKAFCSFQIYAVPWQGTMTLSKSTCQDA
modifications: intermolecular disulfide bridges (the paper: most likely Cys47-Cys69)
- inhibitory capacity toward legumain (fluorogenic substrate Z-Ala-Ala-Asn-AMC), equal mass concentrations [2]: 55%

B2: L68Q cystatin C (natural protein, human, UniProt P01034 27-146, looked up)
chain: B1 chain with C47L, L68Q, C69G
notes: cystatin C, human, hereditary cystatin C amyloid angiopathy variant L68Q; also called L68Q cystatin C variant; disease-associated L68Q variant
- stoichiometry N [4]: 2

B3: human wild type cystatin C (natural protein, UniProt P01034 27-146, looked up)
chain: B1 chain with C47L, C69G
notes: cystatin C, human, wild type; Mr 13,343; also called wt cystatin C; wt monomer; source: E. coli periplasmic extract, purified (ion-exchange, SEC), lyophilized
- binding result [5]: binds
